Laboratory results reported in FireProtDB (doi:10.1016/0022-2836(81)90253-9).

Conditions: Sus scrofa, Thermal, DSC, reversible: yes, whole UniProt chain shown
[1] = pH 6.5, sodium phosphate 5 mM, NaCl 100 mM
[2] = pH 7.1, sodium phosphate 5 mM, NaCl 100 mM

B1: Gastricsin wild type, P30879 (protein)
chain: SVIKVPLKKLKSIRQAMKEKGLLEEFLKTHKYDPAQRYRIGDISVALEPMAYLEAAYFGEISIGTPPQNFLVL
- Tm (pH 6, sodium cacodylate 5 mM): 66 °C
- unfolding enthalpy (calorimetric) (pH 6, sodium cacodylate 5 mM): 271 kcal/mol
- unfolding enthalpy (van 't Hoff) (pH 6, sodium cacodylate 5 mM): 174 kcal/mol
- Tm [1]: 64.5 °C
- unfolding enthalpy (calorimetric) [1]: 256 kcal/mol
- unfolding enthalpy (van 't Hoff) [1]: 131 kcal/mol
- Tm (pH 6.5, sodium phosphate 5 mM): 61 °C
- unfolding enthalpy (calorimetric) (pH 6.5, sodium phosphate 5 mM): 240 kcal/mol
- unfolding enthalpy (van 't Hoff) (pH 6.5, sodium phosphate 5 mM): 125 kcal/mol
- Tm [2]: 56.3 °C
- unfolding enthalpy (calorimetric) [2]: 202 kcal/mol
- unfolding enthalpy (van 't Hoff) [2]: 143 kcal/mol
